Laboratory results reported in IntAct's records for PubMed 16619031.

B1: DNA replication regulator SLD2 (Saccharomyces cerevisiae), P34252 (parent)
chain: MYSFELDKLKIELKTWEHDFIDKNKREPTRDDIKSLRTVRQMYKQYSTLKKKQSLQRQKVDTQESVELPAHKKDHDEVVEIGPTPQVYGKAISIFDMNLSPIKPIYMTFTNNIDVNNDNSKTISNESSPRKTILLKSSPADRTLVAEPISSVKRQLNFQMLNASSTRTPTSSPCKNRNGKLVEIKKCSPTINPPLESGKPSGYYGPNSPLKLDEENIHLNISLNSSTKRRLQIAYPSLQKTPSKDQADISTSFSPSPLIRRPLTKSLIELAREHTEIVKEFGVLQEEDIEEEEEGEEGENGYDEKNHEDDFGLEDELIRPKVVKDIFQEDDDNDDSQAREDTFIRKRPKRRKVIRRLRDNDPETETAGFERDVHKELVKLKRRKVAEFLGSTSQISDTEFEHDPEASSGVVSSEQKPTAKRKGRKKYNLVSNNFRRLKLPKKNRFSNGRWGRR
partner: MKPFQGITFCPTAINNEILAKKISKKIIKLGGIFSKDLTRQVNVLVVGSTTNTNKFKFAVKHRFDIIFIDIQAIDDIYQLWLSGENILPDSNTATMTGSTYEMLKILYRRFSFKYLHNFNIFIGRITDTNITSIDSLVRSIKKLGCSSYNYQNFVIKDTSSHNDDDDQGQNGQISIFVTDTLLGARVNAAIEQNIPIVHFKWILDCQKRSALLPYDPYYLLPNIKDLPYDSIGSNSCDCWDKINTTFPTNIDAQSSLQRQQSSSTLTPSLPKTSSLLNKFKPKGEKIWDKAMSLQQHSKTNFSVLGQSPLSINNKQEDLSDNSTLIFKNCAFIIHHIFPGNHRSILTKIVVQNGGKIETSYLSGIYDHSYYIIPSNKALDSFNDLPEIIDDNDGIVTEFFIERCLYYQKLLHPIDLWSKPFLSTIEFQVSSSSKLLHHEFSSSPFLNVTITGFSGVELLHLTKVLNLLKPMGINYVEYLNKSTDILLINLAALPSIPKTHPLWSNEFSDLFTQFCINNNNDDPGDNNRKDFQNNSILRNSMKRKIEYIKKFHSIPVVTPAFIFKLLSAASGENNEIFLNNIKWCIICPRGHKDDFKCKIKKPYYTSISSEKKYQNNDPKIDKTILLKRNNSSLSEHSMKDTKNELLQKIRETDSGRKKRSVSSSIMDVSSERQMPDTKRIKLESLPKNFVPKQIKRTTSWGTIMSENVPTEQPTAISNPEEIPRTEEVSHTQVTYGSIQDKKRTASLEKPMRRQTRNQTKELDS

Variants of: B1
Settings: with dpb11_yeast DPB11, P47027

Variant	effect of a mutation on the interaction
S208A	disrupting interaction
T241A	disrupting interaction
S100A	disrupting interaction
S128A	disrupting interaction
S172A	disrupting interaction
T168A	disrupting interaction

Variants of: B1
Settings: with dpb11_yeast DPB11, P47027
Remark: another data set of the same source

Variant	effect of a mutation on the interaction
T84A	disrupting interaction
